Experimental data from the nanobody polyreactivity screen of Harvey et al. (2022).

Experiment: yeast display, Sf9 membrane polyspecificity reagent, FACS + sequencing; frameworks hold sequencing errors
Outline: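 Galactose-induced (36–48 hours) yeast carrying a synthetic nanobody display library were exposed to 10% biotinylated, detergent-solubilized Sf9 membrane reagent at 4 °C for 1 hour. FACS followed streptavidin microbead enrichment, using low and high (top ~1%) gates for expression (anti-HA) and reagent binding (streptavidin). Colony PCR, MiSeq 2 × 250 sequencing and CDR-length filtering followed. Labels for polyreactivity reflect the gate of origin.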

Sequence | polyreactivity (PSR sort gate)
QVQLVESGGGLVQAGGSLRLSCAASGSIFSANVMGWYRQAPGKERELVAAITRGGGTYYADSVKGRFTISRDNAKNTVYLQMNSLKPEDTAVYYCNDDYTLSVYGTTYWYNYWGQGTQVTVSS | high polyreactivity
QVQLVESGGGLVQAGGSLRLSCASSGRIFYYNAMGWYRQAPGKERELVAAISKRGGITSYADSVKGRFTISRDNAKNTVYLPMNSLKPEDTAVYYCAADLVPWRGGYYYWGQGTLVTVSS | high polyreactivity
QVQLVESGGGLVQAGGSLRLSCAASGSTFYANDMGWYRQAPGKERELVASISLGDGSTYYADSVKGRFTISRDNAKNTVYLQMNSLKPEDTAVYYCAAGFYVWYWGFNYWGQGSQVTVSS | low polyreactivity
QVQLVESAGGLVQAGGSLRLSCAASGSIFKDYAMGWYRQAPGKERELVAAITSGTSTTYADSVKGRFTISRDNAKYTVYLPMNSLKPDDTAVYYCAADYYLRKTRFESWGQGTQVTVSP | low polyreactivity
QVQLVESGGGLVQAGGSLSLSCAASGFTIYYYAMGWYRQAPGKERELVASITSGGSTYYADSVKGRFTISRDNAKNTVYLQMNSLKPEDTAVYYCAKTRFHSKEGDYWGQGTQVTVSS | low polyreactivity
QVQLVESGGGLVQAGGSLPLSSAAYGSIFYYNAMGWYRQAPGKERELVAAISYSGDSTSYADSVKGRFTISRDNAKNYVFLQMYRLKPEDTAVFYCAAEQDYEDFYEDYYWGQGTQVTVSS | high polyreactivity
QVQLVESGGGLVQSGGSLRLICAASGRIFPYYAMGWYRQAPGKERELVATIRGRVGTTYYADSVKGRFTISRDNAKNTVYLQMTSLKPEDTAVYYCAKREYSRYTRVFGYGSWGQCTQVTVSS | high polyreactivity
QVQLVESGGGLVQAGGSLRLSCAASGSIFEYNDMGWYRQAPGKERELVAAISWNGGSTYYADSVKGRFTISRDNAKNTVYLPMNSLKPEETAVYYCNTRYSPGYQGTEVDYWGQGTQVTVSS | low polyreactivity
QVQLVESGGGLVQAGGSLRLSCAASGSTFDPNALGWYRQAPGKERELVAAISYTGGRTYYADSVKGRFTISRDNAKNTVYLQMNSLKPEDTAVYYCAVLVVGSTTQDEPYFSGVEHDYWGQGTQVTVSS | low polyreactivity
QVQLVESGGGLVQAGGSLRLSCAASGRIFSYYAMGWYRQAPGKERELVARITSRGASTYYADSVKGRFTISRDNAKNTVYLQMNSLKPEDTAVYYCATDRYRIYPDYDYWGQGTQVTVSS | high polyreactivity
QVQLVESGGGVIQAGGSLRLSCAASGRTFYRNTMGWYRQAPGKERELVASISRGGRTNYADSVKGRFTISRDNAKNTVYLQMNSLKREDTAVYYCAKQTSYGGIIRYYASCYGYWGQGTQVTVSS | high polyreactivity
QVQLVESGGGLVQAGGSLRLSCPASGSIFYYYAMGWYRQAPGKERELVAAIRGSGSSTYYADSVKGRFTISRDNAKNTVYLQMNSLKPEDTAVYYCAAYDLLVGLQYDYWGQGTQVTVSS | low polyreactivity
QVQLVESGGGLVQAGGSLRLSCAPSGLTFVGYAMGWYRQAPGKERELVAAISGVGTTNYADSVKGRFTISRDNAKNTVYLQMNSLKPEDTAVYYCATAPYPVPYRLYDYWGQGTQVTVSS | low polyreactivity
QVQVVESGGGLVQAGGSLRLSCAASGSIVSHYAMGWYRQAPGKERELVAGISRRGGRTYYADSVKGRFTISRDNAKNTVYLQMNSLKPEDTAVYYCAALRSSSFGYWGQGTQVTVSS | high polyreactivity
QDQLVESGGGLVQAGGILRLSCAASGITFSYYTMGWYSQAPGKERELVAGITRSGSTYYADSVKGRFTISRDNAKNTVYLQMNSLKPEDTAVYYCAAEIYAFSGLYYYCGQGTQVTVSS | high polyreactivity
QVQLVESGGGLVQAGGSLRLSCAASGSTSGQNAKGWYRQPPGNERELVAAISSSAGSTYADSVKGRFTISRDNAKNTVYLQMNSLKPEDTAVYYCNVPYYYTRGSYGYWGQGTQVTVSS | low polyreactivity
QVQLVESGGGLVQAGGSLRLSCAASGSTYTGYTMGWYRQAPGKERELVAAITYRGGSTYYADSVKGRFTISRDNAKNTVYLQMNSQKPEDTPVFYCAAVPEYYEYSPYDYWGQGTQVTVSS | low polyreactivity
QVQLVESGGGLVQAGGSLRLSCAASGSIFRWYDMGWYRQAPGKERELVAAITWSGSTYYADSVKGRFTISRDNAKNTVYLQMNSLKPEDTAVYYCAAGSRYCNAETYSWYDYWGQGTQVTVSS | high polyreactivity
QVQLVESGGGLVQAGGSLRLSCAASGRIFLPYAMGWYRQAPGKERELVAGISSGGSTKYADSVKGRFTISRDNAKNTVYLQMNSLKPEDTAVYYCNRRFPIYGSRFGYYYWGQGTQVTVSS | high polyreactivity
QVQLVESGGALVQAGGSLRLSCAASGSTFYGYAMGWYRQATGKERELVASITTRGGRTNYADSVKVRFTISRDNAKNTVYLEMNSLKPEDNSVYYCATYSYVTRYARWGEFDYWGQGTQVTVSS | high polyreactivity
QVQLVESGGGLVQAGGSLRLSCAASGSTFSSNAMGWYRQAPGKERELVAAINRRGGTYYADSVKGRFTISRDNAKNTVYLQMNSLKPEDTAVYYCAAASPYHEYDYCGQGTQVTVSS | low polyreactivity
QVQLVESGGGLVQAGGSLRLSCAASGSTFRINAMGWYRQAPGKERELVAAISRSGSITYYADSVKGRFTISRDNAKNTVYLQMNSLKPEDTAVYYCAAKSRKGGDYWGQGTQVTVSS | high polyreactivity

Sequence | polyreactivity (PSR sort gate)
QVQLVESGGGLVQAGGSLRLSCAASGYIFQPYAMGWYRQAPGKERELVAAIDWTGGRTYYADSVKGRFTISRDNAKNTVYLQMNSLKPEVTAVYYCNADFGYWWDGRRYDYWGQGTQVTVSS | low polyreactivity
QVQLVESGGGLVQAGGSLRLSCAASGLIFKSNAMGWYRQAPGKERELVAAITRTGGSTYYADSVKGRFTISRDNAKNTVYLQMNSLKPEDTAVYYCAKVVGRWRSSWELDYWGQGTQVTVSS | high polyreactivity
QVQLVESLGGLVQAGGSLRLSCAASGITFGWYAMGWYRQAPGQERELVAAISPAGSTYYADSVKGRFTISRDNAKNTVYLQMNSLKPEDTAVYYWRYSAFRFSAMGYWGHGTQVTVSS | high polyreactivity
QVQLVESGGGLVQAGGSLRLSCAASGSIFASYAMGWYRQEPGKERELVAAISRRAVRTYYADSVKGRFTISRDNAQNTVYLQMNSLKPEDTAVFYCAKDYRDWRKYDFWGQGTQVTVSS | high polyreactivity
QVQLVESGGGLVQAGGSLRLSCAASGRIVYYNVMGWYRQAPGKEREFVAAISTRTGSTYYADSVKGRFTISRDNAKNSVYLQMNRLKPEDTAVYYCAAPYRAYSYDYWGQGTQVTVSS | high polyreactivity
QVQLVESGGGLVQAGGSLRLSCAASGSIFSVNTMGWNRKAPGKERELVATIRTGDSTNYADSVKGRFTISRDNAKNSVYLQMNSLKPEDTAVYYCAAEWSSMNFDYWGQGTQVNVSS | low polyreactivity
QVQLVESGGGLVQAGGSLRLSCAASGRTFYNAMGWYRQAPGKERQLVAAITTGGGTKYADSVKGRFTISRDNAKNTVYLEMNSLKPEDTAVYYCNTDEWNHFYHGAHKYDYWGQGTQVTVSS | low polyreactivity
QVQLVESGGGLVQAGGSLRLSCAASGSTLPFNAMGCYRQAPGKERELVAAISSGSSTNYADSVKGRFTISRDNAKNTVYLKMNSLKPEDTAVYYCNARPRANQLGDYYKPGTYDYWGQGTQVTVSS | low polyreactivity
QVQLVESGGGLVQAGGSLRLSCAASGRIFYPYAMGWYRQAPGKERELVAAIDWTAGGTYYADSVKGRFTISRDNAKNTVYLQMNSLKPEDTAVYYCAAEYYIEANGDYWGQGTQVTVSS | low polyreactivity
QVQLVESGGCLVQAGGSLRLSCAASGRTFRHYGMGWYRPAPRKERELVAAISRSGGRTYYADSVKGRFTISRDNAKNTVYLQMNSLKPEDTAVYYCNAPYDVTTYAFDYWGQGTQVTVSS | high polyreactivity
QVQLEESGGGLLKEGGSLRLSCAASGRLFYGYTIGRSRQAPGKERELVAAISRNGGSTYYADSVKGRFTISRDNAKNTVYFHMNSLKTEDSAVYYCNAVFSRGYVIKPYDYWGQGTQVTVSS | high polyreactivity
QVQLVESGGGLVQAGGSLRLSCAASGGTFYPYAMGWYRPAPGKERELVAAISASDDNTYYADSVKGRFTISRDNAKNTVYLQMNSLKPEDTAVYYCAKRSYFYPYYYWGQGTQVTVSS | high polyreactivity
QVQLVESGGGLVQAGGSLRLSCAASGFTFYTYAMGWYRQAPGKERELVAAITGSGGRTYYADSVKGRFTISRDNAKTTVYLQMNSLKPEDTAVYYCAALYVYRPRTPYGYWGQGTQVTVSS | high polyreactivity
QVQLLESGGGLVQAGGSLRLSCAASGRTFRSYVMVWYRQAPGKERELVAAISRSGGSTYYADSVKGRFTISRDNAKNTVYLQMNSLKPEDTAVYYCATKRVLTGYDSWGQGTQVTVSS | high polyreactivity
QVQLVESGGGLVQAGGSLRLSCAASGSIFNRNAMGWYRQARGKERELVAAITGSGGRTYYADSVKGRFTISRDNAKNTVYLQMNSLKPEDTAVYYCAARWGYYRYYIFDYWGQGTQVTVSS | high polyreactivity
QVQVVESGGGLVQAGGSLRLSCAASGIIFGAYAMGWYRQAPWKEMELVAAITYSSGSTYYADSVKGRFTISRDNSKNTVYLQMNSLKPEDTAVYYCDKTNFSQSSRFNYDYWGQGTQVTVSS | low polyreactivity
QVQLVESGGGLVQAGGSLRLSCAASGFTFVRYTMGWYRQAPGKERELVAAITSGGSTTYADSVKGRFTISRDNAKNTVYLQMNSLKPEDTAVYYCNAVFYLQYETGRELDYWGQGTQVTVSS | high polyreactivity
QVHLVESGGVLVQAGGSLRLSCAASGSTFLYYAMGRYRQAPGKEREFVASISGSGGSTNYADSVKGRFTISRDNAKNTVSLQMNSLKPEDTAVYYCAKEYVTEFQGYYDWGQGSQVTVSS | low polyreactivity
QVQLVESGGGLVQAGGSLRLSCAASGRIFGKYALGWYRQAPGKERELVAAISGRGGRTYYADSVKGRFTISRDNAKNTVYLQMNSLKPEDTAVYYFANDPRGSRYDYWGQGTQVTVSS | high polyreactivity
QVQLVESGGGLVQAGGSLRLSCAASGFLFVVYTMGWYRQAPGKERELVAAITSGGSTYYADSVKGRFTISRDNAKNTVYLQMNSLKPEDTAVYYCNALASRYPAYYYWGQGTQVTVSS | low polyreactivity
QVQLVESGGGLVQAGGSLRLSCAASGNIFDIYAMGWYRPAPGTERELVAAISSGGSTYYADSVKGRFTISRDNAKNTVYLQMNSLKPEDTAVYYCAESRVGYYRYEYWGQGTQVTVSS | low polyreactivity
